Results on 72 sequences are retold here after the supplement of paper PMC10567573.

The series can be described thus: protein stability index of a GFP-peptide fusion (GPS, HEK-293T) (PSI 1-6); higher = more stable.
Where [1] appears, read: treatment: DMSO, c terminus: a fixed tail appended.
The mark [2] stands for this setting: treatment: MLN4924 1 uM, 8 h, c terminus: a fixed tail appended.
The mark [3] stands for this setting: treatment: DMSO, c terminus: native.
The mark [4] stands for this setting: treatment: MLN4924 1 uM, 8 h, c terminus: native.

± gives the standard deviation.
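Note: 24-mer peptide tiles fused after GFP, lentivirally expressed, FACS-sorted into six equal bins by GFP/DsRed ratio, decoded by Illumina sequencing, PSI is the read-weighted mean bin number.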

For FVIGHLKGAPASWWNHMHFQHHAK [FADS1], the protein stability index under setting [1] was 2.65 ± 0.89 and the protein stability index under setting [2] is 2.24 ± 0.47.

For the sequence FVKILKDFPEEDDPTNWLRCYYYE [NCF4], the protein stability index by setting is: under setting [1], 2.25 ± 0.28; under setting [2], 2.55 ± 0.6.

In the case of FWNFKQMWDSKKIGLRQHHCRKCG [WDFY2], the protein stability index reads like this: under setting [1], 2.34 ± 0.28; under setting [2], 2.66 ± 0.45.

As to FWYREALDISDSISESGGLNWKMT [SLC6A17], the protein stability index reads like this: under setting [1], 2.17 ± 0.34; under setting [2], 1.92 ± 0.32.

Regarding FYSTSSGLANGLQLLCPWAPLSGP [VENTX], the protein stability index by setting is: under setting [1], 2.88 ± 0.4; under setting [2], 2.54 ± 0.55.

In turn, GADGVMRTMAPEKLLKSMPILQGQ [SNAP91] had a protein stability index under setting [1] of 3.76 ± 0.32 and a protein stability index under setting [2] of 3.77 ± 0.28.

For the sequence GCMLIELALRGRLQLEACGMRRKS [GOLPH3], the protein stability index under setting [1] was 1.83 ± 0.31 and the protein stability index under setting [2] turned out to be 2.25 ± 0.28.

As to GDPLNCHSYLSGYISLLLRAEPYP [NR2F2], the protein stability index under setting [1] was determined as 2.76 ± 0.82 and the protein stability index under setting [2] was determined as 2.71 ± 0.65.

In the case of GDWARLLEQMGALAVRGSRREREL [ZBED3], the protein stability index was 3.13 ± 0.51 under setting [1] and 2.89 ± 0.3 under setting [2].

Turning to GEESSKAKEVTIAKADTTSTVTPV [EHMT1], the protein stability index is 5.55 ± 0.27 under setting [1] and 5.45 ± 0.078 under setting [2].

GEQEFEALMRMLDNLGYRTGYPYR [ADD1] had a protein stability index under setting [1] of 2.15 ± 0.3 and a protein stability index under setting [2] of 2.26 ± 0.49.

On to GEREAIQKSVTRSCLLEEEEESGE [POP5], for which the protein stability index was 5.53 ± 0.33 under setting [1] and 5.65 ± 0.18 under setting [2].

In the case of GEVLSYLELAQFHNAHQLAAWCLH [RHOBTB1], the protein stability index under setting [1] was found to be 2.7 ± 0.81 and the protein stability index under setting [2] turned out to be 2.35 ± 0.25.

As to GFTDRREARKYASNLLKAGFIRHT [DVL3], the protein stability index turned out to be 2.66 ± 0.28 under setting [1] and 2.71 ± 0.32 under setting [2].

As for GGAGSSEDDAQSRRDEQDDDDKGD [GOLPH3], the protein stability index is 5.57 ± 0.24 under setting [1] and 5.69 ± 0.28 under setting [2].

As for GGDKLETMPLYLEDDIRPDIKDDI [SCD], the protein stability index runs as follows: under setting [1], 4.9 ± 0.4; under setting [2], 5 ± 0.34.

Regarding GGFDGSRRHTSMERYDPNIDQWSM [KLHL12], the protein stability index is, setting by setting: under setting [1], 3.76 ± 0.28; under setting [2], 3.89 ± 0.45.

Turning to GGFGSMLRALGAQIEKTTNREACR [SDE2], the protein stability index runs as follows: under setting [1], 3.27 ± 0.41; under setting [2], 3.34 ± 0.13.

As for GGFLSESKDCKPPVYLLLELEDKD [MYBL2], the protein stability index is 3.99 ± 0.21 under setting [1] and 4.17 ± 0.32 under setting [2].

Take GGMLNFMMHDQRTGPAWNVLMWTM [SOAT2]: the protein stability index by setting is: under setting [1], 2.49 ± 1.2; under setting [2], 2.07 ± 0.73.

In the case of GGRKGRTLLLQGHHDKVQSLCYLQ [WDFY1], the protein stability index by setting is: under setting [1], 2.54 ± 0.095; under setting [2], 2.73 ± 0.32.

As for GGSKYLIYRRYRQFHALQSKLEER [NCF4], the protein stability index reads like this: under setting [1], 2.45 ± 0.35; under setting [2], 2.45 ± 0.33.

For GGSRGAPGLLMAVGQDLYCYSYS [DCAF4], the protein stability index is 3.16 ± 0.42 under setting [3] and 3.1 ± 1.5 under setting [4].

As for GGVMYISGGITHDTFQKELMCFDP [KLHL13], the protein stability index came to 2.23 ± 0.48 under setting [1] and 2.33 ± 0.54 under setting [2].

GIFPLSFVKILKDFPEEDDPTNWL [NCF4]: the protein stability index under setting [1] was found to be 2.6 ± 0.28 and the protein stability index under setting [2] turned out to be 2.82 ± 0.33.

Regarding GIHPLSSSEVDELIHKADEVTLSE [PALM], the protein stability index under setting [1] came out at 5.35 ± 0.2 and the protein stability index under setting [2] turned out to be 5.23 ± 0.12.

GISALVEIPKNCVVAAVGKELIIF [WDR41]: the protein stability index turned out to be 2.01 ± 1.1 under setting [1] and 2.69 ± 1.3 under setting [2].

Turning to GKGEARARLKRSQSFGVASASSIK [SMTNL2], the protein stability index under setting [1] turned out to be 4.6 ± 0.43 and the protein stability index under setting [2] came to 4.61 ± 0.38.

With GKGSGGNAGSYIPSYTSWYPSAHQ [DLX1], the protein stability index reads like this: under setting [1], 2.56 ± 0.43; under setting [2], 2.69 ± 0.48.

Take GKPLIPPMNRRNILVMKHNYSQDA [NETO1]: the protein stability index was 2.98 ± 0.4 under setting [1] and 3.31 ± 0.28 under setting [2].

Sequence GKSPSITFEYTLLQPPHESRPQPI [ADAMTSL2] yielded a protein stability index under setting [1] of 2.83 ± 0.4 and a protein stability index under setting [2] of 2.83 ± 0.29.

Take GLAGLLPASYTAPIMSGQGLAGFF [SLC29A1]: the protein stability index is, setting by setting: under setting [1], 2.06 ± 0.25; under setting [2], 2.1 ± 0.086.

As for GLDFHRFYFENLWSRNSKPVHTTI [CAMK2A], the protein stability index is, setting by setting: under setting [1], 2.28 ± 0.58; under setting [2], 2.11 ± 0.32.

In the case of GLLAGVGYFAFMLFRKRLGSMILA [GDAP1], the protein stability index reads like this: under setting [1], 1.99 ± 0.082; under setting [2], 2.37 ± 0.41.

Regarding GLLLGSHGLLGSPVRAAASSPVTT [CDC25B], the protein stability index turned out to be 2.74 ± 0.28 under setting [1] and 3.26 ± 0.31 under setting [2].

For GLQPVVFVLFLFAYLVTVRGNLSI [OR3A1], the protein stability index turned out to be 2.6 ± 0.47 under setting [1] and 2.19 ± 0.21 under setting [2].

In the case of GLQSAQPTEGQGSLLTNWPSVPPT [MYBL2], the protein stability index under setting [1] stood at 4.02 ± 0.28 and the protein stability index under setting [2] is 4.14 ± 0.092.

In the case of GMESYQEVTVQRNCCLTLCNFSIP [ZER1], the protein stability index was 2.41 ± 0.52 under setting [1] and 2.1 ± 0.42 under setting [2].

GMPSSLAHRIAAQTLLGTAKMLLH [PYCR3]: the protein stability index is, setting by setting: under setting [1], 2.4 ± 1.2; under setting [2], 2.29 ± 0.3.

In the case of GNSTQATVRDAVVGRPSMDKKAQ [ATL3], the protein stability index reads like this: under setting [3], 5.28 ± 0.13; under setting [4], 5.21 ± 0.23.

For GQIIKDIDSGSPAEEAGLKNNDLV [PDZK1], the protein stability index worked out at 5.31 ± 0.33 under setting [1] and 5.27 ± 0.079 under setting [2].

With GRAGAVGTPGERGPPGPPGPPGPP [EMID1], the protein stability index turned out to be 4.6 ± 0.44 under setting [1] and 4.68 ± 0.22 under setting [2].

Regarding GRLELKPLLLRLPRICQRNLMSLL [FANCE], the protein stability index is, setting by setting: under setting [1], 2.63 ± 0.33; under setting [2], 2.7 ± 0.23.

Take GRLILSTIRLRPRQVLCEKCKSTL [PWWP2B]: the protein stability index is, setting by setting: under setting [1], 2.2 ± 0.4; under setting [2], 2.56 ± 0.55.

With GRNHTPFLGHHSFSVRPGTEATIS [SCNN1D], the protein stability index by setting is: under setting [1], 3.65 ± 0.14; under setting [2], 3.78 ± 0.25.

Consider GRSSMGTGLSGGKRPSQEEDTQSI [CRY1], for which the protein stability index runs as follows: under setting [1], 5.51 ± 0.17; under setting [2], 5.37 ± 0.29.

On to GSKLEKGHLRGPEIRDWRGPQLEG [ZSWIM9], for which the protein stability index under setting [1] was determined as 3.87 ± 0.35 and the protein stability index under setting [2] worked out at 3.85 ± 0.2.

For GSKSQRYSGAYGASVSDEELKRRV [CHCHD3], the protein stability index under setting [1] amounted to 4.99 ± 0.29 and the protein stability index under setting [2] is 4.86 ± 0.18.

Take GSLHYTTLRTLTGQDTMLKAMFSG [KCTD13]: the protein stability index runs as follows: under setting [1], 2.46 ± 0.26; under setting [2], 2.61 ± 0.21.

Take GSSASTSPAPLDTCPSSSTASSIS [DYRK1B]: the protein stability index by setting is: under setting [1], 5.22 ± 0.12; under setting [2], 5.3 ± 0.078.

Regarding GSSDKVYAHQMVRTDSREQKLDAF [MLH1], the protein stability index under setting [1] came out at 4.12 ± 0.13 and the protein stability index under setting [2] was determined as 4.13 ± 0.27.

Turning to GTAHIPPTMHLESPALQVMGPAQE [ZNF449], the protein stability index is, setting by setting: under setting [1], 4.78 ± 0.25; under setting [2], 4.73 ± 0.17.

As for GTDEEEEEFIEEEDQEEEESTEGK [TRIM63], the protein stability index is, setting by setting: under setting [1], 5.71 ± 0.17; under setting [2], 5.56 ± 0.24.

On to GTKCHGCDFKIDAGDRFLEALGFS [PDLIM7], for which the protein stability index reads like this: under setting [1], 2.63 ± 0.22; under setting [2], 2.42 ± 0.36.

Regarding GTTLVVGLLAGVGYFAFMLFRKRL [GDAP1], the protein stability index is 2.41 ± 0.49 under setting [1] and 2.63 ± 0.22 under setting [2].

As to GVGKSALTVQFVQGIFVEKYDPTI [RAP1B], the protein stability index by setting is: under setting [1], 2.25 ± 0.28; under setting [2], 2.07 ± 0.25.

On to GVMLYTLLVGRYPFHDSDPSALFS [TRIB1], for which the protein stability index turned out to be 2.52 ± 0.37 under setting [1] and 2.7 ± 0.46 under setting [2].

In the case of GVVVCEADTGRIHRFVEKPQVFVS [GMPPB], the protein stability index by setting is: under setting [1], 2.25 ± 0.19; under setting [2], 2.28 ± 0.3.

In the case of GVYMTDITPQGVAMRAGVLADDHL [PDZK1], the protein stability index by setting is: under setting [1], 3.54 ± 0.46; under setting [2], 3.34 ± 0.21.

On to GWLPSHEGHLDDGGYTPDLKMSYS [RBMY1A1], for which the protein stability index by setting is: under setting [1], 3.62 ± 0.15; under setting [2], 3.5 ± 0.36.

Consider HAPGVPKILVGNRLHLAFKRQVPT [RAB40B], for which the protein stability index was determined as 2.49 ± 0.5 under setting [1] and 2.6 ± 0.35 under setting [2].

Take HCLHSAGHSQPDGAYSSASSFSRP [DLX1]: the protein stability index was 3.53 ± 0.27 under setting [1] and 3.61 ± 0.17 under setting [2].

As for HFPHLLSPQIQRSAHRALYRRHVL [TMEM175], the protein stability index under setting [1] is 2.69 ± 0.26 and the protein stability index under setting [2] was 2.85 ± 0.15.

As to HGSGSHPGPASGPGPDTGPDSELS [SPAG8], the protein stability index under setting [1] is 5.41 ± 0.25 and the protein stability index under setting [2] turned out to be 5.37 ± 0.36.

As to HHPENGEETVTMLEDVERELDGPK [ZNF396], the protein stability index runs as follows: under setting [1], 5.51 ± 0.13; under setting [2], 5.49 ± 0.15.

HIGNSTQATVRDAVVGRPSMDKKA [ATL3]: the protein stability index runs as follows: under setting [1], 3.97 ± 0.21; under setting [2], 4.49 ± 0.6.

Consider HKARTRPKARKQGVSPADMYRWKL [ADAMTSL2], for which the protein stability index runs as follows: under setting [1], 3.32 ± 0.25; under setting [2], 3.31 ± 0.42.

With HLRATEKMKTRELHRESSNFDSIY [HDAC6], the protein stability index is 3.18 ± 0.43 under setting [1] and 3.46 ± 0.2 under setting [2].

Turning to HLVQHQRIHSGEKPYECNECGKAF [ZNF232], the protein stability index worked out at 3.65 ± 0.21 under setting [1] and 3.8 ± 0.098 under setting [2].

For HNGDMEKILLDAQHESGQSSSRGS [BNIP3L], the protein stability index stood at 5.18 ± 0.17 under setting [1] and 5.32 ± 0.3 under setting [2].

On to HPFFDTAEPDMDDPAYIAVLVLIF [INTS4], for which the protein stability index is, setting by setting: under setting [1], 2.61 ± 0.57; under setting [2], 2.66 ± 0.62.

As for HPFYHCLVAEVPKEHWTPEGHSIV [SAT1], the protein stability index runs as follows: under setting [1], 2.76 ± 0.33; under setting [2], 2.54 ± 0.25.
